Test results reported in FireProtDB (doi:10.1016/j.jmb.2008.02.039).

B1: Ribonuclease HII, O74035 (parent)
chain: MKIAGIDEAGRGPVIGPMVIAAVVVDENSLPKLEELKVRDSKKLTPKRREKLFNEILGVLDDYVILELPPDVIGSREGTLNEFEVENFAKALNSLKVKPDVIYADAADVDEERFARELGERLNFEAEVVAKHKADDIFPVVSAASILAKVTRDRAVEKLKEEYGEIGSGYPSDPRTRAFLENYYREHGEFPPIVRKGWKTLKKIAEKVESEKKAEERQATLDRYFRKV

Variants of: B1
Conditions: Thermococcus kodakarensis (strain ATCC BAA-918 / JCM 12380 / KOD1), pH 9, CD, reversible: Yes, structure 1IO2, whole UniProt chain shown; for Tm / change of melting temperature, mutant - wild type (higher = more stable): Thermal, Gly-NaOH 20 mM; for ddG of mutation (higher = less stable) / denaturant m value / denaturant midpoint (higher = more stable) / unfolding free energy: 50 °C, GdnHCl, Tris-HCl 20 mM

Row | Variant | Tm [°C] | change of melting temperature, mutant - wild type (higher = more stable) [°C] | ddG of mutation (higher = less stable) [kcal/mol] | denaturant m value [kcal/mol/M] | denaturant midpoint (higher = more stable) [M] | unfolding free energy [kcal/mol]
1 | MKIAGADEAGRGPVIGPMVIAAVVVDENSLPKLEELKVRDSKKLTPKRREKLFNEILGVLDDYVILELPPDVIGSREGTLNEFEVENFAKALNSLKVKPDVIYADAADVDEERFARELGERLNFEAEVVAKHKADDIFPVVSAASILAKVTRDRAVEKLKEEYGEIGSGYPSDPRTRAFLENYYREHGEFPPIVRKGWKTLKKIAEKVESEKKAEERQATLDRYFRKV [I6A] | 79.3 | -5.2 | – | – | – | –
2 | MKIAGIDEAGRGPVIGPMVIAAVVVDENSLPKLEELKVRDSKKLTPKRREKLFNEILGVLDDYVILELPPDVIGSREGTLNEFEVENFAKALNSLKVKPDVIYADAADVDEERFAREAGERLNFEAEVVAKHKADDIFPVVSAASILAKVTRDRAVEKLKEEYGEIGSGYPSDPRTRAFLENYYREHGEFPPIVRKGWKTLKKIAEKVESEKKAEERQATLDRYFRKV [L118A] | 70.8 | -13.7 | 5.26 | 5.9 | 0.9 | 5.31
3 | MKIAGIDEAGRGPVAGPMVIAAVVVDENSLPKLEELKVRDSKKLTPKRREKLFNEILGVLDDYVILELPPDVIGSREGTLNEFEVENFAKALNSLKVKPDVIYADAADVDEERFARELGERLNFEAEVVAKHKADDIFPVVSAASILAKVTRDRAVEKLKEEYGEIGSGYPSDPRTRAFLENYYREHGEFPPIVRKGWKTLKKIAEKVESEKKAEERQATLDRYFRKV [I15A] | – | – | 2.13 | 4.3 | 1.47 | 6.31
4 | MKIAGIDEAGRGPVIGPMVIAAVVVDENSLPKLEELKVRDSKKLTPKRREKLFNEILGVLDDYVILELPPDVIGSREGTLNEFEVENFAKALNSLKVKPDVIYADAADVDEERFARELGERLNFEAEVVAKHKADDIFPVVSAASIAAKVTRDRAVEKLKEEYGEIGSGYPSDPRTRAFLENYYREHGEFPPIVRKGWKTLKKIAEKVESEKKAEERQATLDRYFRKV [L147A] | – | – | 2.61 | 6.19 | 1.38 | 8.53
5 | MKIAGIDEAGRGPVIGPMVIAAVVVDENSLPKLEELKVRDSKKLTPKRREKLFNEALGVLDDYVILELPPDVIGSREGTLNEFEVENFAKALNSLKVKPDVIYADAADVDEERFARELGERLNFEAEVVAKHKADDIFPVVSAASILAKVTRDRAVEKLKEEYGEIGSGYPSDPRTRAFLENYYREHGEFPPIVRKGWKTLKKIAEKVESEKKAEERQATLDRYFRKV [I56A] | 75.8 | -8.7 | 3.97 | 5.35 | 1.13 | 6.05
6 | MKIAGIDEAGRGPVIGPMVIAAVVVDENSLPKLEELKVRDSKKLTPKRREKLFNEILGVLDDYVILELPPDVIGSREGTLNEFEVENFAKAANSLKVKPDVIYADAADVDEERFARELGERLNFEAEVVAKHKADDIFPVVSAASILAKVTRDRAVEKLKEEYGEIGSGYPSDPRTRAFLENYYREHGEFPPIVRKGWKTLKKIAEKVESEKKAEERQATLDRYFRKV [L92A] | 78.9 | -5.6 | 2.87 | 6 | 1.33 | 8.01
7 | MKIAGIDEAGRGPVIGPMVAAAVVVDENSLPKLEELKVRDSKKLTPKRREKLFNEILGVLDDYVILELPPDVIGSREGTLNEFEVENFAKALNSLKVKPDVIYADAADVDEERFARELGERLNFEAEVVAKHKADDIFPVVSAASILAKVTRDRAVEKLKEEYGEIGSGYPSDPRTRAFLENYYREHGEFPPIVRKGWKTLKKIAEKVESEKKAEERQATLDRYFRKV [I20A] | 76.1 | -8.4 | 4.42 | 5.74 | 1.05 | 6.05
8 | MKIAGIDEAGRGPVIGPMVIAAVVVDENSLPKAEELKVRDSKKLTPKRREKLFNEILGVLDDYVILELPPDVIGSREGTLNEFEVENFAKALNSLKVKPDVIYADAADVDEERFARELGERLNFEAEVVAKHKADDIFPVVSAASILAKVTRDRAVEKLKEEYGEIGSGYPSDPRTRAFLENYYREHGEFPPIVRKGWKTLKKIAEKVESEKKAEERQATLDRYFRKV [L33A] | 72.6 | -11.9 | – | – | – | –
9 | MKIAGIDEAGRGPVIGPMVIAAVVVDENSLPKLEELKVRDSKKLTPKRREKLFNEILGVLDDYVILELPPDVIGSREGTLNEFEVENFAKALNSLKVKPDVAYADAADVDEERFARELGERLNFEAEVVAKHKADDIFPVVSAASILAKVTRDRAVEKLKEEYGEIGSGYPSDPRTRAFLENYYREHGEFPPIVRKGWKTLKKIAEKVESEKKAEERQATLDRYFRKV [I102A] | 73.8 | -10.7 | 4.04 | 5.9 | 1.12 | 6.62
